Laboratory results published in patent US20110178027A1 (published 2011).
Read-outs that look alike come from different tables or passages of the source. No end group written: not given here.

T1: PC1/3 (UniProt P29120 111-753)
T1 chain: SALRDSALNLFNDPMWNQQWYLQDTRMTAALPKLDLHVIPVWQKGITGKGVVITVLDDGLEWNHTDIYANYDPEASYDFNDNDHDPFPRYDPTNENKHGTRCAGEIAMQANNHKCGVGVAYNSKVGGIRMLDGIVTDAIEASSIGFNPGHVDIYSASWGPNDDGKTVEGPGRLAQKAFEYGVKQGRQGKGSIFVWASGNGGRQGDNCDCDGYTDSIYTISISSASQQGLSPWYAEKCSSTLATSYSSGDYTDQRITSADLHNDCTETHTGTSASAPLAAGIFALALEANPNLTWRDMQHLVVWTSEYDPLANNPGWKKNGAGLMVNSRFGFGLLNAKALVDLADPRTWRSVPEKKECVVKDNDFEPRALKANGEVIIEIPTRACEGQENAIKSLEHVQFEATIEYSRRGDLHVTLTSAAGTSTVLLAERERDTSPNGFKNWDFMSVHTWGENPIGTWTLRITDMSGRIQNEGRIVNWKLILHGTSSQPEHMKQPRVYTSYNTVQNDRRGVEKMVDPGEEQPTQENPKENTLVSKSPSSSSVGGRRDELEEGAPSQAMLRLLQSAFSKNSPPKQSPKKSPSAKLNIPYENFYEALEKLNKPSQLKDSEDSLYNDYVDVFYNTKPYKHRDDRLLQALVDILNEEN

T2: PC5/6 (UniProt Q92824 115-913)
T2 chain: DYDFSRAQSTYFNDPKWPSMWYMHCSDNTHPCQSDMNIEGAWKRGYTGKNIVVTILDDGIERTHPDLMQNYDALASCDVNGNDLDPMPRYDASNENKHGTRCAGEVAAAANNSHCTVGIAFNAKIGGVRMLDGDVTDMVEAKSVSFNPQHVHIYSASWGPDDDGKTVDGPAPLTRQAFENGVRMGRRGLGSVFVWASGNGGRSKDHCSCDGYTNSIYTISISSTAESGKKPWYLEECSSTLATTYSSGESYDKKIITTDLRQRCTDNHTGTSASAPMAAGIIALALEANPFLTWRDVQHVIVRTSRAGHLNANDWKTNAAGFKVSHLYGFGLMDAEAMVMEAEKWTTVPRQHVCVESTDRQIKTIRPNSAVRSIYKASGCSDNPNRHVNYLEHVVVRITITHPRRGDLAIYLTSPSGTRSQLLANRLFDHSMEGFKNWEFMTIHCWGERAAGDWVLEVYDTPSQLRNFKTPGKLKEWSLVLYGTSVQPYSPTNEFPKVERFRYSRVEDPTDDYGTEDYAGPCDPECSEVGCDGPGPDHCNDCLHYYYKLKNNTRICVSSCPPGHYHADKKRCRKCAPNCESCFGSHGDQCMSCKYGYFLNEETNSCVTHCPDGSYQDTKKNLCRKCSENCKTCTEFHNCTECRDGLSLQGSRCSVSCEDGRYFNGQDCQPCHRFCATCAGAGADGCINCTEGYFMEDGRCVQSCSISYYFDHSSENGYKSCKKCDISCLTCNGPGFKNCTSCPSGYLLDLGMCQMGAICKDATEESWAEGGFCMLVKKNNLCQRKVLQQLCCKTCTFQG

T3: PC7 (UniProt Q16549 142-667)
T3 chain: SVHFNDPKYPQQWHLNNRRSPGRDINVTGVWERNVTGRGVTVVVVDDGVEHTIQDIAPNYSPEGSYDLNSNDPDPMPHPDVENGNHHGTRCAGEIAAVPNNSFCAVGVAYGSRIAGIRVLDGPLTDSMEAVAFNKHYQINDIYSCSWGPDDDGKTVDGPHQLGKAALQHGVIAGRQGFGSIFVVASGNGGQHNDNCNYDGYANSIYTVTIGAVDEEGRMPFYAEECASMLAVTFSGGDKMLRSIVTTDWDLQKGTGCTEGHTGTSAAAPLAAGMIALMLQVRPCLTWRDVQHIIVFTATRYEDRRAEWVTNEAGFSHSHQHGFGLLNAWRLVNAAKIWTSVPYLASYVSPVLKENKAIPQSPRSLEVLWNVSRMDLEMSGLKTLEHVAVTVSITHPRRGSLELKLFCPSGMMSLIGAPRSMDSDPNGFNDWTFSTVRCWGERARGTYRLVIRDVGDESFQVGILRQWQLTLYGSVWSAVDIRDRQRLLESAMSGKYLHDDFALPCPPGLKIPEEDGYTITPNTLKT

T4: PC2 (UniProt P16519 110-638)
T4 chain: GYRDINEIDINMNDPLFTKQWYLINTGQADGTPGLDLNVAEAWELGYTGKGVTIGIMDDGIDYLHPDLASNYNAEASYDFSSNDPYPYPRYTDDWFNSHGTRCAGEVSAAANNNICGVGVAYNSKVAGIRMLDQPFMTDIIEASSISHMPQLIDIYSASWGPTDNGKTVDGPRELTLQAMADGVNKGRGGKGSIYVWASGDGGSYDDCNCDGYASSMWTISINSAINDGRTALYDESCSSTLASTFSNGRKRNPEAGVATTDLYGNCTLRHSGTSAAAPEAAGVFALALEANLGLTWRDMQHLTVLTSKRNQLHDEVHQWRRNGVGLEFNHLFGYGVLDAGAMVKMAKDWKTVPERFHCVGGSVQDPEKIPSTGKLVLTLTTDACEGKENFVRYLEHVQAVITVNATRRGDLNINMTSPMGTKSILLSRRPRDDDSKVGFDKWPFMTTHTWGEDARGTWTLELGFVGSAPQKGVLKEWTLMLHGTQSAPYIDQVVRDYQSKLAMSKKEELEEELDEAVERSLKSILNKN

T5: PACE4 (UniProt P29122 150-969)
T5 chain: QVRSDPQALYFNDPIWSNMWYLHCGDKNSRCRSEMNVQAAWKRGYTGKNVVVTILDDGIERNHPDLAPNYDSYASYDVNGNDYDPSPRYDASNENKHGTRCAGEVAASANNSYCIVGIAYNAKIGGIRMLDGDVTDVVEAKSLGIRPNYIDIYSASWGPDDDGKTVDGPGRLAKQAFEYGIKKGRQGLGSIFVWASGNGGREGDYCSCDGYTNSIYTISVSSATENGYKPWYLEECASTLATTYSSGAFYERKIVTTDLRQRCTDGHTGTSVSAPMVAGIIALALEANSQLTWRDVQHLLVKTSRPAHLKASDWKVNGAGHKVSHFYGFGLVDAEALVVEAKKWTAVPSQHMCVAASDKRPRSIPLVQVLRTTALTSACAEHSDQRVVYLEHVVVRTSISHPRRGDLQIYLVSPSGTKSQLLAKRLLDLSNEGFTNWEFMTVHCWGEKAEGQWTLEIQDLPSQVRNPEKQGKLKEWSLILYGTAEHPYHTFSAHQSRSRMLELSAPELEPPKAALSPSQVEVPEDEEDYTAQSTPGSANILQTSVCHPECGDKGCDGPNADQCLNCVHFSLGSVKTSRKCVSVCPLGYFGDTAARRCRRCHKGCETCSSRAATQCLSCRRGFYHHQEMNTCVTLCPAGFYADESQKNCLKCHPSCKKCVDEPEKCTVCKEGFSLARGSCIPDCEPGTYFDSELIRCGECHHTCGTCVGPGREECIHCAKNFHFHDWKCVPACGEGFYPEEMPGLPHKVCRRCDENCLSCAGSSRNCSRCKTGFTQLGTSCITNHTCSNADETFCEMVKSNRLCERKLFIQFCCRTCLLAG

B1: LRVKR-NH2 (peptide)
peptide: LRVKR-NH2
B2: LLRVKR-NH2 (peptide)
peptide: LLRVKR-NH2
B3: LLLLLRVKR-NH2 (peptide)
peptide: LLLLLRVKR-NH2
B4: RVKR-NH2 (peptide)
peptide: RVKR-NH2
B5: LLLRVKR-NH2 (peptide)
peptide: LLLRVKR-NH2
B6: LLLLLLRVKR-NH2 (peptide)
peptide: LLLLLLRVKR-NH2
B7: LLLLRVKR-NH2 (peptide)
peptide: LLLLRVKR-NH2

What was measured:
[1] = biological target: T1, PC1/3; assay: enzyme inhibition
[2] = biological target: T6, furin (UniProt P09958 108-715); assay: enzyme inhibition
[3] = biological target: T2, PC5/6; assay: enzyme inhibition
[4] = biological target: T3, PC7; assay: enzyme inhibition
[5] = biological target: T6, furin
[6] = biological target: T4, PC2; assay: enzyme inhibition
[7] = biological target: T5, PACE4; assay: enzyme inhibition

T6 sequence (P09958 108-715): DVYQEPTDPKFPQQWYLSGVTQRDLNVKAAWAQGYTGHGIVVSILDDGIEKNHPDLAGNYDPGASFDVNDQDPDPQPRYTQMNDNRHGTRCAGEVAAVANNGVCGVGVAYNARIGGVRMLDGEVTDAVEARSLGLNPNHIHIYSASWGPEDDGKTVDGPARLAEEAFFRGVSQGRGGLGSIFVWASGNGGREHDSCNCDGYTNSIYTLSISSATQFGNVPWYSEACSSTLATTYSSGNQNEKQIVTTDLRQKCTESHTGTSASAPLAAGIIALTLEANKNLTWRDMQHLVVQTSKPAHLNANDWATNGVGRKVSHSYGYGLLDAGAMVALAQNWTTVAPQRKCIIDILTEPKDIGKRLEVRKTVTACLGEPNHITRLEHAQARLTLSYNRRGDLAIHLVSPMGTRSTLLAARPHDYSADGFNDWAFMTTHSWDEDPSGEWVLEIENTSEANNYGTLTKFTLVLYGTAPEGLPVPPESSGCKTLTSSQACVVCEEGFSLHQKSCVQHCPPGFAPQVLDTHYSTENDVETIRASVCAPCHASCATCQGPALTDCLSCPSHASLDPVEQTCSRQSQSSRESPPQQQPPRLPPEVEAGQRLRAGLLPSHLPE

Binder	Ki [1]	Ki [2]	Ki [3]	Ki [4]	Ki [5]	Ki [6]	Ki [7]
B1	0.58 µM	0.55 µM	0.36 µM	2.49 µM			
B2	0.17 µM		0.13 µM	0.1 µM	0.54 µM	3.27 µM	
B3	0.37 µM	1.5 µM		0.04 µM		4.83 µM	
B4	1.45 µM	8.11 µM	5.57 µM	10.4 µM			4.34 µM
B5	0.24 µM	0.98 µM	0.34 µM	0.05 µM		12.9 µM	
B6	1.16 µM	1.39 µM		0.03 µM		4.55 µM	
B7					1.14 µM		
